Experimental data from US20210284695A1, “FOLDED AND PROTEASE-RESISTANT POLYPEPTIDES” (UNIVERSITY OF WASHINGTON, priority 2017, published 2021).

Assay type: physicochemical
Method: FIG. 2. Biophysical characterization of designed minimal proteins. (A) Design models and NMR solution ensembles for designed minimal proteins. (B) Far-ultraviolet circular dichroism (CD) spectra at 25° C. (black), 95° C. (red), and 25° C. following melting (blue). (C) Thermal melting curves measured by CD at 220 nm. Melting temperatures determined using the derivative of the curve. (D) Chemical denaturation in GuHCl measured by CD at 220 nm and 25° C. Unfolding free energies determined by fitting to a two-state model (red solid line).
Far-ultraviolet CD measurements were carried out with an AVIV spectrometer, model 420. Wavelength scans were measured from 260 to 195 nm at 25 and 95° C. Temperature melts monitored dichroism signal at 220 nm in steps of 2° C./minute with 30 s of equilibration time. […] The GuHCl concentration was determined by refractive index in PBS buffer. The denaturation process monitored dichroism signal at 220 nm in steps of 0.2 M GdmCl with 1 minute mixing time for each step, at 25° C. Protein concentrations were determined by absorbance at 280 nm measured using a NanoDrop™ spectrophotometer (Thermo Scientific) using predicted extinction coefficients (65). Protein concentrations for designs lacking aromatic amino acids were measured by Qubit™ protein assay (ThermoFisher Scientific). […]

In the case of “TTVKGDIKVTFDNPEKAKKYAQKLAKIYQLTVHVHGDTIHVK [EEHEE_rd3_1049]”, the “stability of purified design (CD, in words)” value is reported as “very stable”.
